Results on 68 sequences are retold here after the domain aggregation screens of Martell et al. (2025).

This data set is described as follows: soluble fraction after stress (log2 fold change); higher = more stays soluble; pooled small domains, quantitative proteomics. The conditions noted are these: stress: pH 4. The method in brief:
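Pooled custom libraries of small protein domains were subjected to pH 4 and measured by high-throughput quantitative proteomics. The log2 fold change in soluble amount per domain is reported, higher values meaning more remained soluble. This is used as a measure of aggregation propensity.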

As to “HMNQADNFNSLTKREKDVLLLVTQGESNKSIADKLVLSEVTVKSHLNSIFKKLNVTNRTQAVLVAMQMNLV”, the “soluble fraction (log2)” value was -0.85. In the case of “HMNQAIIVPDVKGLPLEEATTFFENNDLRYTVIDSVYTKDVPPGAIYEMVPGAGSKVKEGRIIFVTLNAR” it was -0.565. Regarding “HMNQASLTYSEFIANVESKAITRVTISGDTISGILADGKPFQTIYPMADLELLPILRRSGVDINVKEVQ”, the “soluble fraction (log2)” value came out at 0.22. With “HMNQEIELLLREPDFTSAARLAMAINERFTNSARAIDPTSVKVRMPEGLDQASVDFVARLEDIEMSPDT”, the “soluble fraction (log2)” value is -0.587. With “HMNQEQQSAVMSALKATLPDLEAALEARQFKESKQLLKTAQNQFQQLDGRNRRGFQARIQLLAGQFRELS”, the “soluble fraction (log2)” value is -0.00484. In the case of “HMNQIDDADRKRVVDEVAGQFSSMSLTEMRSDREKLLSRIIPQVQTTLNRLGLQTIDVEGIAREVIARVG” it was -0.288; in that of “HMNQIFAPMPGLVLEVKLSEGDVVAEGESAIILEAMKMENIIKSPINGIVKKVHVKKGQTIEKNTLIISFK”, -1.06; in that of “HMNQLSYTERRVLQVIEGGTTKTGEIEQALAAKMSRPTVHRALDALVGANRIHRLARGEYALGPAP”, 0.321. “HMNQRQKQLLSILEQQGDWMKGKALATLLAVSDRTIRSDIEKINREVEGSILSHPHKGYLLSVENRQIAET”: the “soluble fraction (log2)” value came to 0.0959. Take “HMNQSKYQTIADELKSKILSGEYPENTTIPPELQLQKDYQVSRHTIRQAIALLANEGFLRKEKGSGTYVDV”: the “soluble fraction (log2)” value was 0.254.

In the case of “HMNQTTYTVLYSGMDPADTGKVLTALNEMGVDARTQGEDTVLVPADRADEIRLELAAQGYPTS”, the “soluble fraction (log2)” value was -0.0312. Then “HMNQYIFVLNEKGARITSFVDNTIPKEELIALAKQDYPNAADYIYSADGDSMLDEFMRGKLYVNGQFVAA”, with -0.475; and “HMNREIVVYITGAVDNPGLYRLPLDSRLDDVLKLAVLSTNADREVLNPAQKLKDGQKIVVPYIVE”, with -0.452; and “HMNRGITVIVNNEEIKMKEKAQYVVVDIFDYIDFDLTVPKGSINITLNGENTPYTASIKDGDVIEVFW”, with -1.56.

For the sequence “HMNRIARRELMEQLFADNKITTQEQLQQLLRAEGVEVTQATISRDMRILNIVKVSDQNGNTYYKQMK”, the “soluble fraction (log2)” value came out at 0.0823.

In the case of “HMNRIEMTEPIIIKDLSRETGIPWVAIQKRLAQDGIMANINTTIEAEKAQLIAVDYGIELAVV”, the “soluble fraction (log2)” value is -0.54. For “HMNRIGERIKRKRELRNLNLGELAEKVGISASALSQIEKSKSFPSVITLKSIAEQLRTTVGELIGEN”, the “soluble fraction (log2)” value amounted to 0.328. Then “HMNRIKIYPTPGSKVLSIENINFSLIHDFKILDIFGREVKNFTVSSEKNTKMLVDTSKLSDGLYFIFFNTF”, with -0.61; and “HMNRLEFLQGLKAELEGRVPHSIIQENLRYYDSYISDEAAKGQSEEDVVESLGGPRIIARTIVDAA”, with -0.52; and “HMNRNEFMERLEYLLSDIPQEEKADAIAYYRDYLEEAGDDAGKAIQDFGSPERIAAMIRSELAG”, with -0.841. Then “HMNRQTGTVKWFNDAKGFGFITPESGPDLFVHFRSIQGAGFKSLQEGQRVTFVAVQGQKGMQADQVQA”, with -0.429. As to “HMNRTKQIYNELLFRLDQGVYPPESKFPSESQLADEFSVSKVTMNKIVSMLASSGRLSRGVRGAGTFVSSP”, the “soluble fraction (log2)” value was 0.319.

Take “HMNRYPIQTEVHAFNDDIIKEAINFEMSRGGQIFFVNNRIPQLYELENTIHRLVPDARVVIGHGQMP”: the “soluble fraction (log2)” value is -0.722. Then “HMNSFKIYPNPSSREVVRFNQAQDVKVYDTLGKLILSAKNTSAIDTKSFNTGIYFIKTANGLTKKLIV”, with -0.0877; and “HMNSGFEVFREVVNQGSFIGAANALGISAPAVSKQIKLLENRLGLLLLYRTTRNVTLTDIGKQLFDTLDNS”, with -1.37; and “HMNSKKRQAILESLRSVTDHPTAEMIYNRLKPEYPDLSLGTVYRNLAMFLEEGQVISVGTVDGQERYDAR”, with 0.34. “HMNSKSFIFHIEDEEGIRLDVFLADNLPDVSRSYVQKLIDEEHVKVNGQSAKSRLKTVSGMEITVDVPAPK”: the “soluble fraction (log2)” value was -0.543. Then “HMNSLGYSDFVVDVQNERVASVVIEGLIINGERRDGTKFRTVLPTIGDQRLMDDLINHNVKVLARE”, with 0.226; and “HMNSLTVPDITNRTLAEASQVLLDMGLTPIPDAVAKDGVGDDVVYAQSPPPNVGAREGDVVTITYNPA”, with 0.093; and “HMNSNISYSEFLSQVEKGTINSVEITGNSIKGIYADGGEFITFSPGDPGLIDKLQRSDIEILATPPA”, with -0.593. Take “HMNSPSKVIDISQLRKGMFVQLDLGWMSHPFAVGSFKVSTDEQIQTLRGLGLSEVRYIPEKSDPA”: the “soluble fraction (log2)” value was -0.896. Then “HMNSQSGKGGVGYILETKYGLNLPPKMREAMGYAAKGVSDHLHKELHPDEIFDLFKKTFENVGQPYS”, with 0.197; and “HMNSSLLGKRIKSLREDHDLTQKELSLMIGLTPKMISFYENNQRTPPLDILLKLAKIFEVSVDYLIGYA”, with -0.0642. Consider “HMNSTRAPYLLDFEEDAAIREARRAGLVPRIARQPSGEPVGRVILQSHDYDYPMKRGDTILITISSG”, for which the “soluble fraction (log2)” value was -0.797. Then “HMNSTSGIAGVGYWINQYRKKKGMSPVDKKSPLVRRVYDWVQEQYDEGRITIISDAELTRQTELAMEA”, with 0.0383; and “HMNSVAASLREISIKVSGTEDADKVSRLQELSQMPKLDASGIAEANTLLEQLRAKYGDLGLSVDTARGRIV”, with 0.0674. In the case of “HMNSVSIAPEMLNWVIAHIQMNSLPKQIVEHLTAWISGQKEPTFNQIEKVSRATGIPLGYFFLEQPPKE” it was -1.02. Take “HMNSYKGELLVDDKNIRLDLYLFNQFNFFSRTKIKNYILKGNVLVNNNKTSPSYILKGSEKIYYDFSVS”: the “soluble fraction (log2)” value was -0.251. In the case of “HMNTEVDKVLLRSGEAYFGEVLLRNDELVMMKTQDGARFQFPVSEIKSIEKVSVADALRHINS” it was 0.162; in that of “HMNTGFPIILETSDAANLTVGAPIMYRGVEVGKIRNMELNSLGDRVLIHILIGHKYQHLVRQNSEFWFSS”, -2.1. As for “HMNTKDRIKQLAAQRKITIAELERKLHIANGTIGKWDKQNPSIEPLKKLADYFGVTTDYLLGRT”, the “soluble fraction (log2)” value was -0.219. On to “HMNTKLKPLYLLDIFREMTDERHRMTVPELLEELQRRGITAERKGIYRDIDALIQYGADIKHTGTGYYLAR”, for which the “soluble fraction (log2)” value came to 0.18. In the case of “HMNTKLSYSDLIEKIEAGQVEKVELDAGGSSAIVKLKNDNIEKRVNVPSIDNLMENLQDNMKTGNISVTE” it was -0.202; in that of “HMNTLLGLSNSFQDNKDLENANSISRRFISYRPRSEAELRIRLLKVFSHEIVLESVAQMYREGLLNDQRF”, -1.65. Then “HMNTLTKEDIQKAIDVIPIDFKSVVILNLVEGFSYKETAEILEIPIGTVMSRLHRGRKILQKLLWEYSSSK”, with -0.557; and “HMNTTTTKVVSVSSLNMRSGPSTSYNIIEVLTKDTQVEVISVEDGWAKIKYNSKTGYVSNQYLSDKK”, with -0.0101. Then “HMNTVAKELATQATQAKKRAFLDAYAETGIIKRAAEIAGIERKSHYLWLEKDPEYVEAFKSAGEQ”, with -0.0116.

For the sequence “HMNTVSVGNLGLSVRAVNALKQAGIDTYDKLQELSWEELLLIPKLGQVTAAEIYRFITSYKKG”, the “soluble fraction (log2)” value was -0.491. On to “HMNVAETITLGKRLFNHALTILGKKQRNISRKQLKNFLNDLGLKDSKDLYESIGTGDKNPILMAQLLLG”, for which the “soluble fraction (log2)” value was -0.0687. On to “HMNVAVGNSKLVGVAGERAYFVNGVGAAARTLSLQVGDALPTGEKVRRIERDGVTMTGASGDVRLSVLP”, for which the “soluble fraction (log2)” value stood at 0.138. For the sequence “HMNVDALIGTKGIVVQPIRPFAVGQVKVNGQVWSAVGKTPETDIEQGREVKVHAIEGVKLVVTPT”, the “soluble fraction (log2)” value is -0.134.

Consider “HMNVDALVGMPARVTRAFVQGAGEVKLDNGETWTARLSAGVTDAEASVGQTVSVIAVRGAAVEVAPE”, for which the “soluble fraction (log2)” value worked out at 0.158. For the sequence “HMNVDSLIGKKARVLEDIDNLNAKGQVSIDGMEWTARSEDGSEIKKDALVEVVAIEGVKAIVKQ”, the “soluble fraction (log2)” value was -0.127.

For “HMNVEQQNQARENIKRLMEEQGLSQPKLSEKAGIAFGTLSRILRGKQDLTIQTAEKIADALGLSVYDLAE”, the “soluble fraction (log2)” value is 0.247. In the case of “HMNVKVSVDDIARPGLMASGRVTFADGNRGMWYVDEMGRLGIDPEVEGYQPSEADIQAFQRELQSVMES” it was -0.927. Then “HMNVNSQQINDLEKSIQKFFDKDIKNYLNQNLSNDRMISKNEIDKIILLYYGSDKEPTLDEIKSIFN”, with -1.19; and “HMNVNTHKTLILNSTFQPLSLATPQRALALLFSKKINVLKESDIKLRSVGQSVAIPKVAVLTYFVKA”, with 0.132; and “HMNVPFGYTIKDGLLVEQPDEKAILDNILTWKKGQMTVAEIAKKTGMETWKIYGILNYWRNK”, with -0.438. Regarding “HMNVRAYKVSKESELTVEEKLEAVRGYGVADLLYVIREFEENPGKYEPEVIKLIVQQLTDKGIM”, the “soluble fraction (log2)” value was -0.94.

For the sequence “HMNVRRSRTHEKVTTYQGYDIFINKEPNQRGMFTSAPMRGDNEYSNLRGEGKSKQDAVNMTKEKIDEIAA”, the “soluble fraction (log2)” value was 0.229. Then “HMNVSVSITKELQVYINDERISSSALESTLKSKLAGIENPTIILRAEEGVPIEKAVNVMDIANRNRYKIVL”, with -0.969; and “HMNVYAGTMINVVGLQVEDAASRLRGLFYSVKIVEEESQEPDGKVLRQNIAEGTKDLEAWTLVELTVSKYV”, with -0.448; and “HMNVYEVKFGDTLDEIIKTYLFDIPVKKSILRQAVILANPHAFRRNNPHWMYSDRQLKLPELQDIRRAIF”, with -0.74. In the case of “HMNYGDVIEGQIMHVDRDELLVDIGSKSEGIIPAREFSTLTDEERAALSVGDHVLVFVVQAENQEGQAV” it was 0.0111; in that of “HMNYIEWKNTFKKYLYLLPIKEEKETLAYFDEQYNKLNPKDLDNVENIFSDPIDKAAFVVAFYLEMEDEIK”, -0.802; in that of “HMNYIGADAAKNMAAADAQVDTANASFSGANLGEKNGLSYYQVDFTANGREYHYAIDAMTGTVIESSSAAS”, -0.0522. Consider “HMNYNEKGEYTRTLTSGSETAVMTYRNFGETLDVALFKNGVQTDSLRLIKSEPGVLYRQSNGQFEKI”, for which the “soluble fraction (log2)” value is -0.0181. Then “HMNYSIVNVGFNNKSLFLRSAPGYSASRLLLPFATERAFVRETLSNGWSRVIVRGTEGYLPTEYVAD”, with -0.553.
